# Assay results: publication PMC13335484
# How the values were obtained:
# Gh-TDH wild-type [1] = biological target: T1, Gh-TDH wild-type (Grimontia hollisae, UniProt A0A377HK12 25-189); assay: BLI; 50 mM EDTA; conditions: protein: recombinant, chain copies: 4, label: 5'-biotin
# Gh-TDH wild-type [2] = biological target: T1, Gh-TDH wild-type; assay: BLI; 50 mM EDTA; BLI: PBS pH 7.4, 50 mM EDTA, 1 mg/mL BSA, 1000 rpm, temperature not stated; crystals: protein:ssDNA 1:1.3, hanging drop, 20 C; conditions: protein: recombinant; chain copies: 4; label: 5'-biotin
Binder,Kd (Gh-TDH wild-type [1]) [µM],further results
CCCCCCCCCCCC (ssDNA) [poly(dC12)],~3.08,
AAAAAAAAAAAA (ssDNA) [poly(dA12)],,Kd (Gh-TDH wild-type [2]): ~3.08 µM
CTCTATAGAGTTTTCTCTATAGAGTTCT (structured_DNA) [stem-loop dsDNA with 4-nt 3'-overhang],,"Kd (Gh-TDH wild-type [1]; hairpin, 3' overhang 4 nt): 14.8 µM"
TTTTTTTTTTTT (ssDNA) [poly(dT12)],~3.08,
